Data from patent US20240182556A1 (OPSIDIO, published 2024).
Changes are numbered by the printed parent chain. In names and notes the source's numbering stands.

T1: PE9413, C-terminal biotinylated peptide mapping on Exon6 of the SCF molecule (SCF248) (C-terminal biotin)
T1 construct: also called C-terminal biotinylated PE9413; C-ter PE9413
T1 peptide: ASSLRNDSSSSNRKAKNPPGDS

B1: A44P scFv displayed on yeast (scFv, V domains shown)
VH: QVQLVQSGAELKKPGSSVKISCKSSGYAFSSQWMNWVKQRPGQGLEWIGQIYPEDGDTHYNDKFKGKATLTADKSTSTAYMELSSLTSEDSAVYFCSSSNWVGSYWGQGTLVTVSS
VL: DVVMTQSPLSLPVTLGQPASISCKSSQSLLESDGNTYLNWLQQRPGQSPRRLIYLVNRLDSGVPDRFSGSGSGTDFTLKISRVEAEDVGVYYCWQGTDLPQTFGGGTKVEIK
notes: Aga2-anchored, VH-VL orientation; not shown: linker; SV5 tag
B2: E94P scFv displayed on yeast (scFv, V domains shown)
VH: B1 VH with E54G, Y60M, D62G
VL: B1 VL with S32E, N57D
notes: as for B1
B3: D124P scFv displayed on yeast (scFv, V domains shown)
VH: B1 VH with D62G
VL: B1 VL with N57D
notes: as for B1
B4: B34P scFv displayed on yeast (scFv, V domains shown)
VH: B1 VH with Q32N
VL: B1 VL with N57S, L59R
notes: as for B1
B5: D24P scFv displayed on yeast (scFv, V domains shown)
VH: B1 VH with D62G
VL: B1 VL with N57S, S61I
notes: as for B1
B6: G104P scFv displayed on yeast (scFv, V domains shown)
VH: B1 VH with E54G, Y60M, D62G
VL: B1 VL with S32E, N57D, S61D
notes: as for B1
B7: F64P scFv displayed on yeast (scFv, V domains shown)
VH: B1 VH with Q32Y, W33Y, E54G, Y60M, D62G
VL: B1 VL with N57D
notes: as for B1
B8: D113P scFv displayed on yeast (scFv, V domains shown)
VH: B1 VH with E54G, Y60M, D62G
VL: B1 VL with S32G, N57D, S61I
notes: as for B1
B9: D74P scFv displayed on yeast (scFv, V domains shown)
VH: B1 VH with E54G, G56N
VL: B1 VL with S32A, N57D
notes: as for B1
B10: G14P scFv displayed on yeast (scFv, V domains shown)
VH: B1 VH with E54G
VL: B1 VL with S32E, N57D, S61D
notes: as for B1
B11: G24P scFv displayed on yeast (scFv, V domains shown)
VH: B1 VH with Q32N
VL: B1 VL with N57D
notes: as for B1
B12: B53P scFv displayed on yeast (scFv, V domains shown)
VH: B1 VH with T58I, D62G
VL: B1 VL with N57D
notes: as for B1
B13: B23P scFv displayed on yeast (scFv, V domains shown)
VH: B1 VH with Q32Y, W33Y, E54G, Y60M, D62G
VL: B1 VL with N57S, L59R
notes: as for B1

Target: T1, PE9413, C-terminal biotinylated peptide …
Assay: yeast-displayed scFv, flow cytometry titration of biotinylated peptide
Experimental: The binding of the selected 48 clones described above to 170 nM of C-terminal biotinylated PE9413 was evaluated. The 24 clones with the highest binding signal were further evaluated for binding affinity. Each clone was incubated with increasing amounts of biotinylated PE9413, and stained with a fluorescently labeled anti-streptavidin antibody. Binding of the clone to PE9413 was analyzed by flow cytometry. A plot of concentration of PE9413 versus the median fluorescent signal of the yeast cell population that bound to PE9413 was used to estimate the binding affinity (KD) of each clone to C-terminal biotinylated PE9413.

Kd [nM] | Binder
5.32 | B1
6.33 | B2
6.97 | B3
5.06 | B4
14.4 | B5
7.09 | B6
6.69 | B7
8.07 | B8
6.38 | B9
5.93 | B10
5.79 | B11
4.97 | B12
5.3 | B13
